Measurements taken from publication doi:10.1101/2021.01.29.428744.

Biological target: AlexaFluor594-tagged α-SYN pre-formed fibrils (PFFs) (human) (UniProt P37840)
Experiment: two-color coincidence detection

[…]1 (from UniProt Q9H0R8 1-117) (natural protein)
relative presence of GFP species in the aggregates: 0.14
